Results reported in PMC9510110, “Assignment of IVL-Methyl side chain of the ligand-free monomeric human MALT1 paracaspase-IgL3 domain in solution” (Biomolecular Nmr Assignments, 2022).

Molecular target: the molecule itself
Experiment: anion-exchange chromatography (Q-Sepharose HP); purification step after Ni2+ Sepharose; monomer and dimer forms separated on the column; followed by SEC on Superdex 200 in 20 mM HEPES 7.4, 50 mM NaCl, 1 mM DTT

B1: human MALT1(Casp-IgL3)338–719 (domain or fragment, UniProt Q9UDY8 338-719, looked up)
chain: PLAKDKVALLIGNMNYREHPKLKAPLVDVYELTNLLRQLDFKVVSLLDLTEYEMRNAVDEFLLLLDKGVYGLLYYAGHGYENFGNSFMVPVDAPNPYRSENCLCVQNILKLMQEKETGLNVFLLDMCRKRNDYDDTIPILDALKVTANIVFGYATCQGAEAFEIQHSGLANGIFMKFLKDRLLEDKKITVLLDEVAEDMGKCHLTKGKQALEIRSSLSEKRALTDPIQGTEYSAESLVRNLQWAKAHELPESMCLKFDCGVQIQLGFAAEFSNVMIIYTSIVYKPPEIIMCDAYVTDFPLDLDIDPKDANKGTPEETGSYLVSKDLPKHCLYTRLSSLQKLKEHLVFTVCLSYQYSGLEDTVEDKQEVNVGKPLIAKLDMHR
notes: Expressed with isotope labels (2H, 15N, 13C; Ile/Val/Leu methyl labelling) in M9 medium; also called MALT1 paracaspase-IgL3 domain; source: E. coli T7 express, pET21b, purified (Ni2+ Sepharose, Q-Sepharose HP, SEC Superdex 200); not shown: His6, C-terminal, kept
Question: Does B1 bind?
Answer: binds
